Results: patent publication US6962792B1, “Methods and means for inhibition of Cdk4 activity” (Cyclacel Limited, priority 1996, dated 2005)
“Also recorded” adds a separate entry of the source. Like-named read-outs stand apart in the source and are kept apart here. One block for each molecule: values may come before it. Where a SMILES comes first, the peptide text is derived from it. Where no end group is shown, it is not given here.

Assays:
cyclin D1-Cdk4 [1] = molecular target: T1, cyclin D1-Cdk4 (Homo sapiens, UniProt P11802+P24385); assay: Cyclin D1-Cdk4 GST-Rb phosphorylation assay (Sf9 insect cell lysate); type: biochemical
T1 construct: made in house; host or cells: Sf9 insect cells, baculovirus co-infection; unpurified lysate
T1 sequence (P11802 whole entry): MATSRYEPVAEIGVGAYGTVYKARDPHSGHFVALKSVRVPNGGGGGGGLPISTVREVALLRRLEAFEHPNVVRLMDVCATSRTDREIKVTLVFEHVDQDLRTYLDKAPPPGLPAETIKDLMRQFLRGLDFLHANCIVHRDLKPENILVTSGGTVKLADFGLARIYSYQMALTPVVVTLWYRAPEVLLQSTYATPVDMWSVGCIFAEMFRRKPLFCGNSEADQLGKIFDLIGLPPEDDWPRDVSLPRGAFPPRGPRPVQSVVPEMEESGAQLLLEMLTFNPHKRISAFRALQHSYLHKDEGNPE
T1 sequence (P24385 whole entry): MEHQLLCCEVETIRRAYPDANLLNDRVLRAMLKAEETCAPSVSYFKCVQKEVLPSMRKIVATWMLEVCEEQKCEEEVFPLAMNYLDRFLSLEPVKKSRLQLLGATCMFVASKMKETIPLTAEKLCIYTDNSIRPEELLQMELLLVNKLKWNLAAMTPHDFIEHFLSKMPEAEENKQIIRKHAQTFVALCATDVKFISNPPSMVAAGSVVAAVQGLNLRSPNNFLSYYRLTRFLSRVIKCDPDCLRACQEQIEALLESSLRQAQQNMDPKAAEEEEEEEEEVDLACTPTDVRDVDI
Method: (§1) “x” indicates no addition of peptide.
(§2) Cyclins and CDKs—Cdk4 and cyclin D1, Cdk2 and cyclin E and Cdc2 and cyclin B were co-expressed in Sf9 insect cells infected with the appropriate baculovirus constructs. The cells were harvested two days after infection by low speed centrifugation and the pellet was lysed in an equal volume of 10 mM Hepes, pH 7.4 containing: 10 mM NaCl, 1 mM EDTA, and 0.1 mM phenylmethane sulphonyl fluoride, 2 mM DTT and centrifuged at 14000×g for 15 min. The supernatant was removed, aliquoted and immediately frozen in liquid nitrogen. Thawed lysate was used only once and was never refrozen. Labelled Cdk4 and cyclin D1 were produced by translation in the presence of [^35S] methionine using a rabbit reticulocyte lysate in vitro translation kit (Promega).
(§3) Phosphorylation of GST-Rb—Cdk4 activity was measured using the cyclin D1-Cdk4 containing insect cell lysate described above. Extract (1 μl) was added to a final reaction volume of 10 μl, containing: 50 mM Hepes, pH 7.4, 10 mM MgCl2, 2.5 mM EGTA, 1 mM DTT, 10 mM β-glycerophosphate, 1 mM NaF, 10 mM PKI, 50 μM ATP containing [^32P] ATP (1000 cpm/pMol) and 0.5 μg GST-Rb. […] The samples were analysed by SDS-PAGE on 12% gels followed by auto-radiography and quantification using a Bio-Imager.

cyclin D1-Cdk4 [2] = molecular target: T2, cyclin D1-Cdk4 (Homo sapiens, UniProt P11802); assay: as above; type: biochemical; details: GST-Rb substrate; read-out: I0.5 for inhibition of Cdk4 activity
T2 construct: made in house; host or cells: Sf9 insect cells, baculovirus co-infection; unpurified lysate
T2 sequence (P11802 whole entry): as the sequence (P11802 whole entry) above
T2 sequence (P24385 whole entry, further chain): as the sequence (P24385 whole entry) above
Method: as §1, §2, §3

cyclin D1-Cdk4 [3] = molecular target: T1, cyclin D1-Cdk4; assay: Peptide phosphorylation by cyclin D1-Cdk4; type: biochemical; details: conditions where 2.4 nMol 32P incorporated per nMol GST-Rb
Method: The biotinylated peptides (1 μg) were incubated for 30 min at 30° C. in a final volume of 20 μl containing: 50 mM Hepes, pH 7.4, 10 mM MgCl2, 2.5 mM EGTA, 1 mM DTT, 10 mM β-glycerophosphate, 1 mM NaF, 10 mM PKI, 50 μM ATP containing [^32P]ATP (6000 cpm/pMol) and either 1 μl of cyclin D1-Cdk4 insect cell lysate, 1 μl of uninfected insect cell lysate or 0.02 mU of protein kinase C plus 0.5 mM CaCl2, 100 mg/ml phosphatidyl serine and 20 mg/ml diacylglycerol. The reactions were stopped by heating at 60° C. for 5 min and streptavidin agarose beads were added (10 μl packed cell volume washed with 3×PBS) and incubated with shaking at 4° C. for 30 min. The beads were washed extensively with PBS containing 3% (v/v) Tween-20 and the incorporation of radioactivity into the peptides was determined by Cerenkov counting.

cyclin B-Cdc2 = molecular target: T3, cyclin B-Cdc2 (Homo sapiens, UniProt P06493); assay: Cyclin B-Cdc2 histone H1 kinase assay; type: biochemical; details: concentrations up to 20 μM
T3 construct: made in house; host or cells: Sf9 insect cells, baculovirus co-infection; unpurified lysate
T3 sequence (P06493 whole entry): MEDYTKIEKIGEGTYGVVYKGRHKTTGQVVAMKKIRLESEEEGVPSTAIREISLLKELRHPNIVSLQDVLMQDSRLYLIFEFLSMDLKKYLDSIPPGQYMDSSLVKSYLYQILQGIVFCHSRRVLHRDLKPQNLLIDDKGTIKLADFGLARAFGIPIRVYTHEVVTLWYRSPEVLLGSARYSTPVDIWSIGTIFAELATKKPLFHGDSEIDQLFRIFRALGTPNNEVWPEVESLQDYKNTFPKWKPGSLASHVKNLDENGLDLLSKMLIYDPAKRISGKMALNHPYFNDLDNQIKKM
T3 sequence (P14635 whole entry partner): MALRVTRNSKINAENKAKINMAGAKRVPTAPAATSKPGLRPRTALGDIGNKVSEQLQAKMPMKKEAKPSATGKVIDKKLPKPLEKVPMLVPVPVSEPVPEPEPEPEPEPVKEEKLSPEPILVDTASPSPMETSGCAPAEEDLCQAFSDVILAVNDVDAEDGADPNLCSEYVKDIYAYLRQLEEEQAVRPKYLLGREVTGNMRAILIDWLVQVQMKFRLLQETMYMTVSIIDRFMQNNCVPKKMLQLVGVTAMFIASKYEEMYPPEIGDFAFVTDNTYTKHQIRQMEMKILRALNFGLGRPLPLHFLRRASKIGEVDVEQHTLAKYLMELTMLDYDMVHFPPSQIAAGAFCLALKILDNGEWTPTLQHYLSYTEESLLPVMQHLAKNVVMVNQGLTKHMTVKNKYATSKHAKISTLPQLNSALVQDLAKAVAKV
Method: The conditions were identical to those described in the Experimental Procedures for cyclin D1-Cdk4 except that histone H1 (0.5 μg/assay) was used as the substrate for cyclin B-Cdc2.

Soas2 cells = assay: Cell cycle arrest in Rb negative cells; type: cell-based
[4] = test system: pRb phosphorylation in HaCaT cells; assay: pRb phosphorylation in HaCaT cells (Western blot); type: cell-based, human; details: serum-starved HaCaT cells released with 10% FCS, 24 hour time course; Peptide-I 25 μM, Peptide-II 50 μM
Description: Samples were taken at the times shown and analysed by SDS-PAGE/Western blot stained for pRb. pRb represents hypophosphorylated Rb protein and pRb* refers to hyperphosphorylated Rb protein. It should be pointed out that equal amounts of total protein were loaded per lane and that the antibody appears to preferentially recognise phosphorylated forms of the Rb protein. Peptide I corresponds with SEQ ID NO:24; peptide II corresponds with SEQ ID NO:25; and peptide III corresponds with SEQ ID NO:26.
HaCaT cells were seeded on 30 mm culture plates at 25% confluency in DMEM with 10% FCS. The FCS was withdrawn after 24 hours and the cells were starved for 72 hours. At the end of this period the medium was supplemented with 10% FCS and carrier linked peptides. Samples were taken over a 24 hour time course and the cells were lysed in RIPA buffer (50 mM Tris-HCl, pH 8.0, containing 150 mM NaCl, 1.0% (v/v) NP-40, 0.5% (w/v) DOC, 0.1% (w/v) SDS, 1 mM PMSF, 0.1 mg/ml aprotinin and 0.5 mg/ml leupeptin) for 30 minutes at 4° C. The phosphorylation statues of pRb was determined by Western blot analysis, as previously described (Fahraeus et al, 1996) except that the blot was probed with a pRb polyclonal antibody (C-15, Santa Cruz).

HaCaT cells = assay: Cell cycle measurements by BrdU/FACS in HaCaT cells; type: cell-based, human; details: for G1-, S-phase distribution / G1 arrest: proliferating HaCaT cells, 24 hours, Peptide-I and Peptide-III 25 μM, Peptide-II 50 μM
Method: The peptides were added to proliferating HaCaT cells, grown in DMEM plus 10% FCS. The cells were incubated for 24 hours pulse labelled during with 15 μM BrdU, fixed and then analysed by FACS.
Carrier linked peptides were designed for delivery into proliferating HaCaT cells (see FIG. 9). Cells were seeded on 30mm culture plates and grown to 50% confluency in Dulbecco's modified Eagle's medium (DMEM) supplemented with 10% (v/v) foetal calf serum (FCS). Peptides were added to the medium and the cells were incubated for 24 hours. During the last 30 minutes of the incubation the cells were pulse labelled in the presence of 15 μM BrdU. The cells were trypsinised, fixed in absolute alcohol and prepared for FACS analysis using a single laser flow cytometer (Becton-Dickinson, FACScan) as previously described (Renzing et al, 1996).

cyclin D1-Cdk4 [5] = molecular target: T1, cyclin D1-Cdk4; assay: Relief of p21WAF1 inhibition in cyclin D1-Cdk4 GST-Rb phosphorylation assay; type: biochemical; details: peptide 1, 5, 17 & 34 μM, fixed concentration of p21WAF1
[6] = molecular target: cyclin D1-Cdk4 complex co-expressed in Sf9 insect cells (lysate) (UniProt P11802); assay: cell-based or functional assay
cyclin D1-Cdk4 complex co-expressed in Sf9 insect cells (lysate) (UniProt P11802), sequence (P11802 whole entry, chain 1 of 2): as the sequence (P11802 whole entry) above
cyclin D1-Cdk4 complex co-expressed in Sf9 insect cells (lysate) (UniProt P11802), sequence (P24385 whole entry, chain 2 of 2, further chain): as the sequence (P24385 whole entry) above

[7] = molecular target: cyclin D1-Cdk4 complex co-expressed in Sf9 insect cells (lysate) (UniProt P11802 1-303; P24385 1-295); assay: cell-based or functional assay
cyclin D1-Cdk4 complex co-expressed in Sf9 insect cells (lysate) (UniProt P11802 1-303; P24385 1-295), sequence (P11802 whole entry, chain 1 of 2): as the sequence (P11802 whole entry) above
cyclin D1-Cdk4 complex co-expressed in Sf9 insect cells (lysate) (UniProt P11802 1-303; P24385 1-295), sequence (P24385 whole entry, chain 2 of 2): as the sequence (P24385 whole entry) above

[8] = molecular target: T4, Cdk4 labelled with [35S]methionine, translated in rabbit reticulocyte lysate (human, UniProt P11802 1-303, [35S]methionine label); assay: peptide precipitation of 35S-labelled protein from reticulocyte lysate, SDS-PAGE and autoradiography
T4 construct: also called 35S-labelled Cdk4
T4 sequence (P11802 whole entry): as the sequence (P11802 whole entry) above
Method: (§4) After extensive washing bound proteins were analysed using SDS-PAGE followed by autoradiography. The bands were quantified using a Bio-Imager and Whole Band Analysis Software (Millipore).
(§5) Peptide (1.5 μg) was diluted in 100 μl of PBS and incubated with 10 μl of packed streptavidin-agarose beads (Sigma) for 1 h at room temperature. Unbound peptide was removed by extensive washing with PBS and the beads, plus bound peptide, were incubated for 1 h at 4° C. with reticulocyte lysate containing either Cdk4 or cyclin D1 labelled with [^35S] methionine. […] The bound protein was analysed by SDS-PAGE followed by auto-radiography and quantification of the ^35S-labelled protein using a Bio-Imager and Whole Band Analysis Software (Millipore).

[9] = molecular target: T5, cyclin D1 labelled with [35S]methionine, translated in rabbit reticulocyte lysate (human, UniProt P24385 1-295, [35S]methionine label); assay: as above
T5 construct: also called 35S-labelled cyclin D1
T5 sequence (P24385 whole entry): as the sequence (P24385 whole entry) above
Method: as §4, §5

cyclin D1-Cdk4 inhibitory activity (cyclin D1-Cdk4 [1]): only weak inhibition
inhibition of cyclin D1-Cdk4 activity (cyclin D1-Cdk4 [1]; peptide at 17 μM): inhibited cyclin D1-Cdk4 activity
Molecule: 8: synthetic peptide of the p21WAF1 library, SEQ ID NO:8 (AEEDHVDLSLSCTLVPRSGE) [compound 8]

fold higher I0.5 than full length peptide (cyclin D1-Cdk4 [1]; versus full length peptide 10): approximately 1000 fold
IC50 (cyclin D1-Cdk4 [2]): ~100 µM
Molecule: CC[C@H](C)[C@H](NC(=O)[C@H](CC(C)C)NC(=O)[C@H](CCCNC(=N)N)NC(=O)[C@H](CCCNC(=N)N)NC(=O)[C@@H](N)CCCCN)C(=O)N[C@@H](Cc1ccccc1)C(=O)N[C@@H](CO)C(=O)N[C@@H](CCCCN)C(=O)O (H-KRRLIFSK-OH; C-terminus assumed)
cyclin D1-Cdk4 inhibitory activity (cyclin D1-Cdk4 [1]): completely inhibit cyclin D1-Cdk4 activity

inhibition at 17 µM (cyclin D1-Cdk4 [1]; peptide at 17 μM, read-out: inhibition of kinase activity): ~80%
Molecule: CC(C)C[C@H](NC(=O)[C@H](CCCNC(=N)N)NC(=O)[C@H](CCCNC(=N)N)NC(=O)[C@H](CS)NC(=O)[C@H](C)NC(=O)[C@@H](N)CCCCN)C(=O)N[C@@H](Cc1ccccc1)C(=O)NCC(=O)N1CCC[C@H]1C(=O)N[C@H](C(=O)N[C@@H](CC(=O)O)C(=O)N[C@@H](CO)C(=O)N[C@@H](CCC(=O)O)C(=O)N[C@@H](CCC(N)=O)C(=O)N[C@@H](CC(C)C)C(=O)N[C@@H](CO)C(=O)N[C@@H](CCCNC(=N)N)C(=O)N[C@@H](CC(=O)O)C(=O)N[C@@H](CS)C(=O)N[C@@H](CC(=O)O)C(=O)O)C(C)C [peptide 2] (H-KACRRLFGPVDSEQLSRDCD-OH; C-terminus assumed)
substrate for cyclin D1-Cdk4 (cyclin D1-Cdk4 [3]): neither peptide 2 nor peptide 10 were substrates for cyclin D1-Cdk4
effect on Cdc2-cyclin B histone H1 kinase activity (cyclin B-Cdc2): neither peptide 2 nor peptide 10 had a significant effect

Molecule: Peptide-I: peptide 10 with M to A at position 7 synthesised onto Antennapedia carrier peptide, SEQ ID NO:24 (KRRQTSATDFYHSKRRLIFSRQIKIWFQNRRMKWKK)
cell cycle arrest / G1 population in pRb negative cells (Soas2 cells): increase in the population of cells in G1 phase
phosphorylation status of pRb [4]: pRb remained hypophosphorylated
G1-, S-phase distribution / G1 arrest (HaCaT cells): number of cells entering S-phase in the presence of Peptide-I was dramatically reduced and the G1 population showed a concomitant increase

fold lower I0.5 in vitro than free peptide (cyclin D1-Cdk4 [1]; carrier linked versus free peptide, data not shown): approximately 50 fold
Molecule: Peptide-II: truncated peptide 10 coupled to carrier peptide, SEQ ID NO:25 (KRRLIFSKRQIKIWFQNRRMKWKK)
phosphorylation status of pRb [4]: totally prevented the phosphorylation of pRb
G1-, S-phase distribution / G1 arrest (HaCaT cells): effectively promoted a G1-phase arrest
fold less active as growth suppressor than Peptide-I (HaCaT cells; versus Peptide-I): 2 fold

Molecule: Peptide-III: carrier linked control peptide 10 lacking the last 4 amino acids (LIFS), SEQ ID NO:26 (RQTSMTDFYHSKRRRQIKIWFQNRRMKWKK)
G1-, S-phase distribution / G1 arrest (HaCaT cells): no detectable effect on the ability of HaCaT cells to enter S-phase

Molecule: R-A mutant: peptide 10 with R-A at residue 15, equivalent to residue 155 of the full length protein (KRRQTSMTDFYHSKARLIFSSGSG)
block of inhibitory activity of full length p21WAF1 (cyclin D1-Cdk4 [5]): able to block the inhibitory activity of full length p21^WAF1

I0.5 for inhibition of cyclin D1-Cdk4 activity [6]: 16.3 µM
Molecule: p16INK4 derived peptide (Fahraeus et al., 1996)

cyclin D1-Cdk4 inhibitory activity (cyclin D1-Cdk4 [1]; concentrations of up to 35 μM): no inhibitory activity
Molecule: peptide 4: residues 46-65 of p21WAF1, SEQ ID NO:4, Biotin-SGSG spacer (RERWNFDFVTETPLEGDFAW; not fully specified (N-terminus, C-terminus))
cyclin D1-Cdk4 inhibitory activity (cyclin D1-Cdk4 [1]): no detectable activity; also recorded: no Cdk4 inhibitory activity

cyclin D1-Cdk4 inhibitory activity (cyclin D1-Cdk4 [1]): potent inhibitor of Cdk4 activity
inhibition of cyclin D1-Cdk4 activity (cyclin D1-Cdk4 [1]; peptide at 17 μM): completely inhibited enzyme activity
Molecule: peptide 11: extreme C-terminal peptide of p21WAF1, SEQ ID NO:11 (TSMTDFYHSKRRLIFSKRKP)

I0.5 for inhibition of Cdk4 activity (GST-Rb phosphorylation) [7]: 0.1 µM
B1: peptide 11 (extreme C-terminal peptide of p21^WAF1) (peptide)
peptide: H-TSMTDFYHSKRRLIFSKRKPSGSG
modifications: not fully specified (C-terminus); also: biotin on C-terminal SGSG spacer, order not given here

binding result [8]: no binding
I0.5 for inhibition of Cdk4 activity (GST-Rb phosphorylation) [7]: 2 µM
B2: peptide 2 (residues 16-35 of p21^WAF1) (peptide)
peptide: H-KACRRLFGPVDSEQLSRDCDSGSG
modifications: not fully specified (C-terminus); cysteine pairing not given here; also: biotin on C-terminal SGSG spacer, order not given here
notes: Synthetic biotinylated peptide, captured on streptavidin-agarose in the precipitation assay; The order of biotin and SGSG at the C-terminus is not spelled out

fold I0.5 against the full length peptide 10 [7]: ~1000 fold
B3: untagged eight amino acid peptide KRRLIFSK (peptide)
peptide: KRRLIFSK

I0.5 for inhibition of Cdk4 activity (GST-Rb phosphorylation) [7]: 0.1 µM
B4: peptide 10 (residues 141-160 of p21^WAF1) (peptide)
peptide: KRRQTSMTDFYHSKRRLIFSSGSG
modifications: not fully specified; Biotin-SGSG spacer at the C-terminus; free N-terminus

loss of inhibitory activity against cyclin D1-Cdk4 relative to peptide 10 [7]: > 60%
B5: peptide 10 mutant with R-A at residue 15 of peptide 10 (residue 155 of the full length protein) (peptide)
peptide: H-KRRQTSMTDFYHSKARLIFSSGSG
modifications: not fully specified (C-terminus); also: biotin on C-terminal SGSG spacer, order not given here

binding result [9]: no binding
B6: peptide 4 (residues 46-65 of p21^WAF1) (peptide)
peptide: H-RERWNFDFVTETPLEGDFAWSGSG
modifications: not fully specified (C-terminus); also: biotin on C-terminal SGSG spacer, order not given here
notes: Synthetic biotinylated peptide

fold decrease in fold I0.5 in vitro against the free truncated peptide 10 [7]: ~50 fold
B7: Peptide-II (truncated peptide 10 linked to carrier peptide) (peptide)
peptide: KRRLIFSKRQIKIWFQNRRMKWKK
